In PMC10526274, “Epithelial-Immune Cell Crosstalk Determines the Activation of Immune Cells In Vitro by the Human Cathelicidin LL-37 at Low Physiological Concentrations” (Biomolecules, 2023):

System: Caco-2 polarized monolayer
Assay: Bidirectional transport of FITC-LL-37 through the Caco-2 epithelial monolayer
Type: in vitro ADME, human
Method: Caco-2 cell line (ATCC HTB-37) was cultured in a humidified CO2-incubator (5% CO2, 37 °C) in the complete DMEM/F12 (1:1) medium (Gibco, Waltham, MA, USA) containing 10% fetal bovine serum (FBS, Gibco) and 1X antibiotic–antimycotic solution (Gibco). To stabilize the cell phenotype, Caco-2 cells have been subcultivated three times before seeding on the filter supports. Then, Caco-2 cells were seeded at a density of 2 × 10^5 cells/cm^2 onto 24-well Millicell cell culture inserts (PC, 0.4-μm pore size, 0.6 cm^2 surface area, cat. #PIHP01250) (Millipore, Burlington, MA, USA), precoated with 0.2% bovine gelatin (Sigma-Aldrich, Saint Louis, MO, USA). After seeding, Caco-2 cells were grown in the same complete medium with re-feeding every 2–3 days until polarization of the monolayer occurred. The functional polarity of the monolayers was developed when transepithelial electrical resistance (TEER) between the apical and basolateral surfaces of the monolayers reached […] as measured by the electrical resistance system Millicell-ERS Voltohmmeter (Millipore, Burlington, MA, USA). Grown cell monolayers were used in transport and cytokine production experiments between the 21st and 29th days.
LL-37 was labeled with fluorescein isothiocyanate isomer I (FITC) (Sigma-Aldrich). For coupling with FITC, 0.5 mg of LL-37 in 50 µL of DMSO was first mixed with 200 µL of the carbonate–bicarbonate coupling buffer (0.1 M sodium carbonate, 0.1 M sodium bicarbonate, pH 10.4). Then, 4 mg of FITC in 200 µL of DMSO was added to the solution, and the resultant mixture was incubated in the dark at room temperature (20–22 °C) for 2 h. FITC-LL-37 was purified by using a PD10 gel-filtration column (GE Healthcare, Chicago, IL, USA) pre-equilibrated with PBS.
The penetration capability of FITC-LL-37 was investigated using Caco-2 cells as an in vitro model of the intestinal epithelial barrier, grown on permeable Millicell cell culture inserts. Transport of the compound from both sides of the monolayer was determined in the transport buffer (Hank’s balanced salt solution, containing 25 mM HEPES, 1 mM MgCl2, 1 mM CaCl2, and 10 mM D(+)glucose, pH 7.4). […]
Transfer of LL-37 through Caco-2 monolayers under steady-state conditions was evaluated mathematically for each direction and each insert by the apparent permeability coefficient (Papp), calculated according to the following Equation (1): Papp = ΔC/Δt × (V/(A × Ci))(1) where ΔC/Δt is the solute flux (nM/s) across the barrier, V is the volume of the acceptor chamber, A is the effective filter area of the well (cm^2), and Ci is the initial concentration of the donor solution (nM). […]

“LL-37: the only human cathelicidin, host defense antimicrobial peptide of 37 a.a. residues, produced by solid-phase peptide synthesis” was tested, and the “Apparent permeability (Papp) B → A (secretory)” value (Caco-2 (ATCC HTB-37) on Millicell PC inserts, day 21-29, TEER 400, basolateral-to-apical, FITC-labeled LL-37, 5 µM donor, HBSS, 25 mM HEPES, pH 7.4 both sides, 37 °C, 90 min, range over 4 independent inserts) was 1.7–2.1 × 10^−6 cm/s, the “Uptake ratio (UR) = Papp(A → B)/Papp(B → A)” value (Caco-2, FITC-labeled LL-37 5 µM, pH 7.4, 90 min) was 0.51 and the “Efflux ratio (ER) = Papp(B → A)/Papp(A → B)” value (Caco-2, FITC-labeled LL-37 5 µM, pH 7.4, 90 min, no inhibitor) was 1.95. The “Predicted absorption in the human gut” value (predicted from Caco-2 Papp A → B by the classification of ref 20) was 0–20%.
